This assay concerns the target purified IgG1. Nature of the assay: ELISA on dilutions of purified isotype standards. A general note: An ELISA detects its analyte on a solid surface through an enzyme-linked reagent.

As to “anti-mouse IgG1 secondary antibody (tool reagent)”, the greater affinity than the IgG2a antibody pair came to 40%.
